According to paper PMC4267639, “The Mtr4 ratchet helix and arch domain both function to promote RNA unwinding”:

Legend:
Assay in all cases: fluorescence anisotropy; 0.5 mM MgCl2; FA: 40 mM MOPS pH 6.5, 100 mM NaCl, 0.5 mM MgCl2, 5% glycerol, 0.01% NP-40 substitute, 2 mM DTT, 60 nM RNA, 30 C; EMSA conditions not in material
Settings in all cases: protein: recombinant; tags: vector pET151/D-TOPO; label: 3' fluorescein on R16; 3' overhang 6 nt (UAAAAA) on R22A, other end blunt; 16 bp
Mtr4 R1030A = molecular target: T1, Mtr4 R1030A (Saccharomyces cerevisiae, UniProt P47047 1-1073, R1030A)
T1 sequence: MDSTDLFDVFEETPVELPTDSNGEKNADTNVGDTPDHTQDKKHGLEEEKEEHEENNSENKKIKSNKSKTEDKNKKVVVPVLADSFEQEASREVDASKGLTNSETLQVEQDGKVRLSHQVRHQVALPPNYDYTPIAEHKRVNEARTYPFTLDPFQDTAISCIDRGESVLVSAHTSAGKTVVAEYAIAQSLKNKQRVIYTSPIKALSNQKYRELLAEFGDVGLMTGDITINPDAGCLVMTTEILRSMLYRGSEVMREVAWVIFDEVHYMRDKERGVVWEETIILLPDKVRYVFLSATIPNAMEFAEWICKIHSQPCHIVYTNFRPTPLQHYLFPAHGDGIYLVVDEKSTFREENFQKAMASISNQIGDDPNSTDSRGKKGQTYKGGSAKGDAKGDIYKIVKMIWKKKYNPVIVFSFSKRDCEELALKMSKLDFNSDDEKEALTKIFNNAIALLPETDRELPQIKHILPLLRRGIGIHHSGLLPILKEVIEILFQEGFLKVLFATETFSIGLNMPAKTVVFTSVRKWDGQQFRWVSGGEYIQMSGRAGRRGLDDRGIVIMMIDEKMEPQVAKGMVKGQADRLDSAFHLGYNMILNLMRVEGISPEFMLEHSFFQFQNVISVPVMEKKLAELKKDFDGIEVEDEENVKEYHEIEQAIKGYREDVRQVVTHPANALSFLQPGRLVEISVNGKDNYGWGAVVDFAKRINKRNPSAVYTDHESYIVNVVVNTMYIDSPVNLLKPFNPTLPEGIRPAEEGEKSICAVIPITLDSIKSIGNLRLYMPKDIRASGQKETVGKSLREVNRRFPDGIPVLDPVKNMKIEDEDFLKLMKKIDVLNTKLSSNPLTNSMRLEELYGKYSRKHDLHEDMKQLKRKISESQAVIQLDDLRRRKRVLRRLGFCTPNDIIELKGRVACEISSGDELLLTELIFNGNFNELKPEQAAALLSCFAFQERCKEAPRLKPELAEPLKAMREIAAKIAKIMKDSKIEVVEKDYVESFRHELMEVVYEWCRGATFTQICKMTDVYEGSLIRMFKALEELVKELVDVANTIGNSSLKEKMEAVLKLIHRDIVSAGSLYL

Mtr4 E1033A = molecular target: T2, Mtr4 E1033A (Saccharomyces cerevisiae, UniProt P47047 1-1073, E1033A)
T2 sequence: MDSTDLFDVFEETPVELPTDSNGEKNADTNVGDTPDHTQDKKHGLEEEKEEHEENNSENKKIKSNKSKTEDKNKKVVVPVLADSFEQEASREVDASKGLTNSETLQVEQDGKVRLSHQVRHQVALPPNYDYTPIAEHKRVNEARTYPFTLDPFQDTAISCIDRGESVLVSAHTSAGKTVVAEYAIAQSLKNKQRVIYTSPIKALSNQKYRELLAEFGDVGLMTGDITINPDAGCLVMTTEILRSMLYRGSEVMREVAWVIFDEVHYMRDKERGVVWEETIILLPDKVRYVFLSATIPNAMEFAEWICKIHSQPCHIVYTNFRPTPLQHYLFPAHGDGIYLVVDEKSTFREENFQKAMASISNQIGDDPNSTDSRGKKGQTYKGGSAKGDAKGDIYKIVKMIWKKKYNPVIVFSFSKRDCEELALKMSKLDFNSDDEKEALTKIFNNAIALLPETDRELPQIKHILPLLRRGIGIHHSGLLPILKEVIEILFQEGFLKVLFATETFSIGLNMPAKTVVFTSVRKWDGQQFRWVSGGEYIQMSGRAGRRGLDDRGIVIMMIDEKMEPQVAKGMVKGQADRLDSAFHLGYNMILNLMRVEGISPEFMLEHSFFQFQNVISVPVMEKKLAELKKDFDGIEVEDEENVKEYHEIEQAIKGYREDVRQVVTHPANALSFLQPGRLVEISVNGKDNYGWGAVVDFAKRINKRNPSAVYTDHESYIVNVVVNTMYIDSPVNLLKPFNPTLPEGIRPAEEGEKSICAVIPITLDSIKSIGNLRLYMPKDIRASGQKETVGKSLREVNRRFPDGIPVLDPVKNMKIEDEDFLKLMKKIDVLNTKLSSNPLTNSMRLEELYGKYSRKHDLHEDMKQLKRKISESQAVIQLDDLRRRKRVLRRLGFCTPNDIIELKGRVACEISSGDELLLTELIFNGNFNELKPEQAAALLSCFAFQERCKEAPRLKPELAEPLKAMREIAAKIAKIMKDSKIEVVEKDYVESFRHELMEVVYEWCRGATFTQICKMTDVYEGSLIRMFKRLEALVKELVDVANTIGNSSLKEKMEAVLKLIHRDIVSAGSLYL

Mtr4 WT = molecular target: T3, Mtr4 WT (Saccharomyces cerevisiae, UniProt P47047)
T3 sequence: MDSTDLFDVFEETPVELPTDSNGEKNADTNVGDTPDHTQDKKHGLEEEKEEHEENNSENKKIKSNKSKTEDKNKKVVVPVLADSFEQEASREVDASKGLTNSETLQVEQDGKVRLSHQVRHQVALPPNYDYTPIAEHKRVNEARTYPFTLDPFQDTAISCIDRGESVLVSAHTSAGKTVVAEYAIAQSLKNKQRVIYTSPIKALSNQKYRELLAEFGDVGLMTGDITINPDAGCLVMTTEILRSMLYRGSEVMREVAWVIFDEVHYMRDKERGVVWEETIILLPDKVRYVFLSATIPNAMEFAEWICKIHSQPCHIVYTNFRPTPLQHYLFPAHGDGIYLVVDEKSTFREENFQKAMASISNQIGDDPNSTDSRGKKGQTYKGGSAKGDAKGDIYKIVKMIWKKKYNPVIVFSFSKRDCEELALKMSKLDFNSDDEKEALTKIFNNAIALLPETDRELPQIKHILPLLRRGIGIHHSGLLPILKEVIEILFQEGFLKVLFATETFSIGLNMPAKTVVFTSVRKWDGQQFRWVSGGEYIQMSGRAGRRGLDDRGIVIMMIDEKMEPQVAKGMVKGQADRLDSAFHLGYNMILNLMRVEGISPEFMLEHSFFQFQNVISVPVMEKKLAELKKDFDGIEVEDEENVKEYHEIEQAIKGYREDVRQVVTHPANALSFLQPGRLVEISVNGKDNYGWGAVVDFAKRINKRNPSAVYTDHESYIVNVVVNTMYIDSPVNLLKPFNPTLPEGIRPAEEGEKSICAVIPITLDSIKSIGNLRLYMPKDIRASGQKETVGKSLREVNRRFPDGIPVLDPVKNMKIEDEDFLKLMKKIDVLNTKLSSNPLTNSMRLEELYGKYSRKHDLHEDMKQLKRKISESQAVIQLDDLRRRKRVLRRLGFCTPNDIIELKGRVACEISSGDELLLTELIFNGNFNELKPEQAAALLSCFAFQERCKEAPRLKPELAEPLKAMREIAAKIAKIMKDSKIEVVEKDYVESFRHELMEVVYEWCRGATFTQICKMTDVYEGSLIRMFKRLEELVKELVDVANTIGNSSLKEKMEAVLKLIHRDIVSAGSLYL

B1: poly(A) substrate R22A/R16, fluorescein (dsRNA)
RNA 1: GCGUCUUUACGGUGCUUAAAAA
RNA 2: AGCACCGUAAAGACGC
Kd (Mtr4 R1030A): 2600 ± 1000 nM | Kd (Mtr4 E1033A): 2000 ± 600 nM | Kd (Mtr4 WT): 2800 ± 900 nM
